The results in this text go back to the supplement of paper PMC5998384.

Series [1] concerns HeLa Kyoto. Description: solubility in G1/S (NP-40 vs SDS abundance) (log2 ratio); higher = more soluble. As to conditions: cell cycle stage: G1/S.
Series [2] has as its system HeLa Kyoto. Description: solubility change mitosis vs G1/S (difference of NP-40 vs SDS log2 ratios) (log2 ratio difference); higher = more soluble in mitosis.
Series [3] deals with HeLa Kyoto. Nature of the series: thermal stability score vs G1/S (z-score of summed log2 fold changes over temperatures); higher = more thermally stable than in G1/S.
Series [4] concerns HeLa Kyoto. Description: melting temperature (median over replicates), in situ; higher = more thermally stable.
[5] abbreviates: cell cycle stage: early G1 (4.5 h after nocodazole release).
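Wherever melting temperature (median over replicates), in situ is given: HeLa Kyoto cells synchronized by double thymidine or nocodazole block, proteins quantified by TMT10plex mass spectrometry, three independent biological replicates.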
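Wherever solubility change mitosis vs G1/S (difference of NP-40 vs SDS log2 ratios) is given: synchronized HeLa Kyoto cells (double thymidine block for G1/S, nocodazole release for mitosis), protein amounts in NP-40 versus SDS lysates quantified by mass spectrometry, three biological replicates.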
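Wherever solubility in G1/S (NP-40 vs SDS abundance) is given: HeLa Kyoto cells arrested at G1/S by double thymidine block, proteins quantified by TMT10plex mass spectrometry in mild NP-40 versus SDS extracts, three biological replicates.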
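Wherever thermal stability score vs G1/S (z-score of summed log2 fold changes over temperatures) is given: synchronized HeLa Kyoto cells, proteins quantified by TMT10plex mass spectrometry, three biological replicates, mitosis taken 0.5 h after nocodazole release, G1/S directly after double thymidine block.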

Turning to “MAKVSELYDVTWEEMRDKMRKWREENSRNSEQIVEVGEELINEYASKLGDDIWIIYEQVMIAALDYGRDDLALFCLQELRRQFPGSHRVKRLTGMRFEAMERYDDAIQLYDRILQEDPTNTAARKRKIAIRKAQGKNVEAIRELNEYLEQFVGDQEAWHELAELYINEHDYAKAAFCLEELMMTNPHNHLYCQQYAEVKYTQGGLENLELSRKYFAQALKLNNRNMRALFGLYMSASHIASNPKASAKTKKDNMKYASWAASQINRAYQFAGRSKKETKYSLKAVEDMLETLQITQS [EMC2]”, the “solubility in G1/S (log2)” value with HeLa Kyoto [1] amounted to 0.188. In the series with HeLa Kyoto [2], the “solubility change mitosis (log2)” value amounted to 0.0699. Besides, the thermal stability score is -1.21 in the series with HeLa Kyoto [3] (setting [5]) and -1.88 in the series on HeLa Kyoto [3] (cell cycle stage: mitosis). The melting temperature was determined as 53.8 °C in the series on HeLa Kyoto [4] (cell cycle stage: G1/S) and 53.9 °C in the series on HeLa Kyoto [4] (cell cycle stage: mitosis).

Turning to “MALFAVFQTTFFLTLLSLRTYQSEVLAERLPLTPVSLKVSTNSTRQSLHLQWTVHNLPYHQELKMVFQIQISRIETSNVIWVGNYSTTVKWNQVLHWSWESELPLECATHFVRIKSLVDDAKFPEPNFWSNWSSWEEVSVQDSTGQDILFVFPKDKLVEEGTNVTICYVSRNIQNNVSCYLEGKQIHGEQLDPHVTAFNLNSVPFIRNKGTNIYCEASQGNVSEGMKGIVLFVSKVLEEPKDFSCETEDFKTLHCTWDPGTDTALGWSKQPSQSYTLFESFSGEKKLCTHKNWCNWQITQDSQETYNFTLIAENYLRKRSVNILFNLTHRVYLMNPFSVNFENVNATNAIMTWKVHSIRNNFTYLCQIELHGEGKMMQYNVSIKVNGEYFLSELEPATEYMARVRCADASHFWKWSEWSGQNFTTLEAAPSEAPDVWRIVSLEPGNHTVTLFWKPLSKLHANGKILFYNVVVENLDKPSSSELHSIPAPANSTKLILDRCSYQICVIANNSVGASPASVIVISADPENKEVEEERIAGTEGGFSLSWKPQPGDVIGYVVDWCDHTQDVLGDFQWKNVGPNTTSTVISTDAFRPGVRYDFRIYGLSTKRIACLLEKKTGYSQELAPSDNPHVLVDTLTSHSFTLSWKDYSTESQPGFIQGYHVYLKSKARQCHPRFEKAVLSDGSECCKYKIDNPEEKALIVDNLKPESFYEFFITPFTSAGEGPSATFTKVTTPDEHSSMLIHILLPMVFCVLLIMVMCYLKSQWIKETCYPDIPDPYKSSILSLIKFKENPHLIIMNVSDCIPDAIEVVSKPEGTKIQFLGTRKSLTETELTKPNYLYLLPTEKNHSGPGPCICFENLTYNQAASDSGSCGHVPVSPKAPSMLGLMTSPENVLKALEKNYMNSLGEIPAGETSLNYVSQLASPMFGDKDSLPTNPVEAPHCSEYKMQMAVSLRLALPPPTENSSLSSITLLDPGEHYC [OSMR]”, in the series with HeLa Kyoto [1], the “solubility in G1/S (log2)” value is -0.0468. For the same sequence, in the series with HeLa Kyoto [2], the “solubility change mitosis (log2)” value is -0.0968. For the same sequence, the thermal stability score in the series with HeLa Kyoto [3] (setting [5]) is 0.598; with HeLa Kyoto [3] (cell cycle stage: mitosis) it was -0.083. Also, the melting temperature with HeLa Kyoto [4] (cell cycle stage: G1/S) turned out to be 50.9 °C; with HeLa Kyoto [4] (cell cycle stage: mitosis), 51.1 °C.

Regarding “MALHVPKAPGFAQMLKEGAKHFSGLEEAVYRNIQACKELAQTTRTAYGPNGMNKMVINHLEKLFVTNDAATILRELEVQHPAAKMIVMASHMQEQEVGDGTNFVLVFAGALLELAEELLRIGLSVSEVIEGYEIACRKAHEILPNLVCCSAKNLRDIDEVSSLLRTSIMSKQYGNEVFLAKLIAQACVSIFPDSGHFNVDNIRVCKILGSGISSSSVLHGMVFKKETEGDVTSVKDAKIAVYSCPFDGMITETKGTVLIKTAEELMNFSKGEENLMDAQVKAIADTGANVVVTGGKVADMALHYANKYNIMLVRLNSKWDLRRLCKTVGATALPRLTPPVLEEMGHCDSVYLSEVGDTQVVVFKHEKEDGAISTIVLRGSTDNLMDDIERAVDDGVNTFKVLTRDKRLVPGGGATEIELAKQITSYGETCPGLEQYAIKKFAEAFEAIPRALAENSGVKANEVISKLYAVHQEGNKNVGLDIEAEVPAVKDMLEAGILDTYLGKYWAIKLATNAAVTVLRVDQIIMAKPAGGPKPPSGKKDWDDDQND [CCT8]”, in the series on HeLa Kyoto [1], the “solubility in G1/S (log2)” value was 0.0969. Besides, the “solubility change mitosis (log2)” value in the series with HeLa Kyoto [2] was -0.0769. Also, the thermal stability score with HeLa Kyoto [3] (setting [5]) was -0.228; with HeLa Kyoto [3] (cell cycle stage: mitosis), -1.4. Also, the results for the melting temperature with HeLa Kyoto [4] (cell cycle stage: G1/S) and with HeLa Kyoto [4] (cell cycle stage: mitosis) were 54.2 °C and 53.9 °C, respectively.

Turning to “MALKVATVAGSAAKAVLGPALLCRPWEVLGAHEVPSRNIFSEQTIPPSAKYGGRHTVTMIPGDGIGPELMLHVKSVFRHACVPVDFEEVHVSSNADEEDIRNAIMAIRRNRVALKGNIETNHNLPPSHKSRNNILRTSLDLYANVIHCKSLPGVVTRHKDIDILIVRENTEGEYSSLEHESVAGVVESLKIITKAKSLRIAEYAFKLAQESGRKKVTAVHKANIMKLGDGLFLQCCREVAARYPQITFENMIVDNTTMQLVSRPQQFDVMVMPNLYGNIVNNVCAGLVGGPGLVAGANYGHVYAVFETATRNTGKSIANKNIANPTATLLASCMMLDHLKLHSYATSIRKAVLASMDNENMHTPDIGGQGTTSEAIQDVIRHIRVINGRAVEA [IDH3G]”, the “solubility in G1/S (log2)” value in the series with HeLa Kyoto [1] is 0.253. Besides, the “solubility change mitosis (log2)” value in the series with HeLa Kyoto [2] is -0.0967. Further, the thermal stability score was -0.804 with HeLa Kyoto [3] (setting [5]) and -0.821 in the series on HeLa Kyoto [3] (cell cycle stage: mitosis). In addition, the melting temperature stood at 54.5 °C with HeLa Kyoto [4] (cell cycle stage: G1/S) and 54 °C in the series on HeLa Kyoto [4] (cell cycle stage: mitosis).

Take “MALLFARSLRLCRWGAKRLGVASTEAQRGVSFKLEEKTAHSSLALFRDDTGVKYGLVGLEPTKVALNVERFREWAVVLADTAVTSGRHYWEVTVKRSQQFRIGVADVDMSRDSCIGVDDRSWVFTYAQRKWYTMLANEKAPVEGIGQPEKVGLLLEYEAQKLSLVDVSQVSVVHTLQTDFRGPVVPAFALWDGELLTHSGLEVPEGL [SPRYD4]”: the “solubility in G1/S (log2)” value with HeLa Kyoto [1] is -0.0415. Further, in the series on HeLa Kyoto [2], the “solubility change mitosis (log2)” value was -0.14. Moreover, the thermal stability score with HeLa Kyoto [3] (setting [5]) was -1.47; in the series with HeLa Kyoto [3] (cell cycle stage: mitosis), -3.25. Moreover, the melting temperature in the series with HeLa Kyoto [4] (cell cycle stage: G1/S) was 53.9 °C; with HeLa Kyoto [4] (cell cycle stage: mitosis), 54.8 °C.

Consider “MALLTAAARLLGTKNASCLVLAARHASASSTNLKDILADLIPKEQARIKTFRQQHGKTVVGQITVDMMYGGMRGMKGLVYETSVLDPDEGIRFRGFSIPECQKLLPKAKGGEEPLPEGLFWLLVTGHIPTEEQVSWLSKEWAKRAALPSHVVTMLDNFPTNLHPMSQLSAAVTALNSESNFARAYAQGISRTKYWELIYEDSMDLIAKLPCVAAKIYRNLYREGSGIGAIDSNLDWSHNFTNMLGYTDHQFTELTRLYLTIHSDHEGGNVSAHTSHLVGSALSDPYLSFAAAMNGLAGPLHGLANQEVLVWLTQLQKEVGKDVSDEKLRDYIWNTLNSGRVVPGYGHAVLRKTDPRYTCQREFALKHLPNDPMFKLVAQLYKIVPNVLLEQGKAKNPWPNVDAHSGVLLQYYGMTEMNYYTVLFGVSRALGVLAQLIWSRALGFPLERPKSMSTEGLMKFVDSKSG [CS]”, for which the “solubility in G1/S (log2)” value with HeLa Kyoto [1] worked out at 0.519. Also, the “solubility change mitosis (log2)” value in the series with HeLa Kyoto [2] is -0.0123. The thermal stability score in the series on HeLa Kyoto [3] (setting [5]) turned out to be 1.01; in the series with HeLa Kyoto [3] (cell cycle stage: mitosis), 0.1. Also, the melting temperature in the series with HeLa Kyoto [4] (cell cycle stage: G1/S) worked out at 52 °C; in the series on HeLa Kyoto [4] (cell cycle stage: mitosis) it was 51.9 °C.
